Experimental data: patent US20060094013

T1: peptide p300 [84-93 (S89A)], Q09472
T1 chain: LLRSGASPNL

B1: GST-rat SIK1 (protein)
chain: MVIMSEFSAVPTGTGQGQQKPLRVGFYDVERTLGKGNFAVVKLARHRVTKTQVAIKIIDKTRLDSSNLEKIYREVQLMKLLNHPNIIKLYQVMETKDMLYIVTEFAKNGEMFDYLTSNGHLSENEARKKFWQILSAVEYCHNHHIVHRDLKTENLLLDGNMDIKLADFGFGNFYKPGEPLSTWCGSPPYAAPEVFEGKEYEGPQLDIWSLGVVLYVLVCGSLPFDGPNLPTLRQRVLEGRFRIPFFMSQDCETLIRRMLVVDPAKRITIAQIRQHRWMQADPTLLQQDDPAFSMQGYTSNLGDYNEQVLGIMQALGIDRQRTVESLQNSSYNHFAAIYYLLLERLREHRSTQPSSRATPAPARQPQLRNSDLSSLEVPQEILPCDPFRPSLLCPQPQALAQSVLQAEIDCDLHSSLQPLFFPLDTNCSGVFRHRSISPSSLLDTAISEEARQGPSLEEEQEVQEPLPGSTGRRHTLAEVSTHFSPLNPPCIIVSSSAAVSPSEGTSSDSCLPFSASEGPAGLGGGLATPGLLGTSSPVRLASPFLGSQSATPVLQSQAGLGATVLPPVSFQEGRRASDTSLTQGLKAFRQQLRKNARTKGFLGLNKIKGLARQVCQSSIRGSRGGMSTFHTPAPSSGLQGCTASSREGRSLLEEVLHQQRLLQLQHHSAVSSDYQQAPQLSPVPYVLTPCDGLLVSGIPLLPTPLLQPGMSPVASAAQLLDAHLHISAGPVALPTGPLPQCLTRLSPSCDPAGLPQGDCEMEDLTSGQRGTFVLVQ
B2: GST-mSIK2 (protein)
chain: MVMADGPRHLQRGPVRVGFYDIEGTLGKGNFAVVKLGRHRTTKTEVAIKIIDKSQLDAVNLEKIYREVQIMKMLDHPHIIKLYQVMETKSMLYLVTEYAKNGEIFDYLANHGRLNESEARRKFWQILSAVDYCHGRKVVHRDLKAENLLLDNNMNIKIADFGFGNFFKTGELLATWCGSPPYAAPEVFEGQQYEGPQLDIWSMGVVLYVLVCGALPFDGPTLPILRQRVLEGRFRIPYFMSEDCEHLIRRMLVLDPSKRLSIAQIKEHKWMLIEVPVQRPILYPQEQENEPSIGEFNEQVLRLMHSLGIDQQKTVESLQNKSYNHFAAIYFLLVERLKSHRSSFPVEQRLDGRQRRPSTIAEQTVAKAQTVGLPVTLHPPNVRLMRSTLLPQASNVEAFSFPTSSCQAEAAFMEEECVDTPKVNGCLLDPVPPVLVRKGCQSLPSSMMETSIDEGLETEGEAEEDPSQAFEAFQATRSGQRRHTLSEVTNQLVVMPGAGKMFSMSDNPSLESVDSEYDMGSAQRDLNFLEDSPSLKDIMLANQPSPRMTSPFISLRPANPAMQALSSQKREAHNRSPVSFREGRRASDTSLTQGIVAFRQHLQNLARTKGILELNKVQLLYEQMGSNADPTLTSTAPQLQDLSSSCPQEEISQQQESVSSLSASMHPQLSPQQSLETQYLQHRLQKPNLLPKAQSPCPVYCKEPPRSLEQQLQEHRLQQKRLFLQKQSQLQAYFNQMQIAESSYPGPSQQLALPHQETPLTSQQPPSFSLTQALSPVLEPSSEQMQFSSFLSQYPEMQLQPLPSTPGPRAPPPLPSQLQQHQQPPPPPPPPPPQQPGAAPTSLQFSYQTCELPSTTSSVPNYPASCHYPVDGAQQSNLTGADCPRSSGLQDTASSYDPLALSELPGLFDCEMVEAVDPQHNGVVSCLARET

Columns and labels:
[1] = molecular target: GST-Syntide 2 [GST: P08515]
Sequence of GST-Syntide 2 [GST: P08515] (P08515 whole entry, looked up): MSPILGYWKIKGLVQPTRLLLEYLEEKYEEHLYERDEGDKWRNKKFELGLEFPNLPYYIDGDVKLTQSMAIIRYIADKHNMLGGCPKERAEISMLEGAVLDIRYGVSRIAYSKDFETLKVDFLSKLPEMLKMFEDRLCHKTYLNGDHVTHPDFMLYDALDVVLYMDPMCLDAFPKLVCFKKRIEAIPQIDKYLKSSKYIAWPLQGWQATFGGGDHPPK

[2] = molecular target: SIK1 peptide wherein serine at position 577 is substituted with alanine (on GST as carrier protein) [GST: P08515]
Sequence of SIK1 peptide wherein serine at position 577 is substituted with alanine (on GST as carrier protein) [GST: P08515] (P08515 whole entry, looked up): as above

[3] = molecular target: SIK1 substrate mutant (R574/575A) wherein arginines at positions 574 and 575 are substituted with alanines
[4] = molecular target: SIK1 substrate mutant (R574A) wherein arginine at position 574 is substituted with alanine
[5] = molecular target: SIK1 substrate mutant (R575A) wherein arginine at position 575 is substituted with alanine
[6] = molecular target: wild-type SIK1 peptide not phosphorylated by PKA (on GST as carrier protein) [GST: P08515]
Sequence of wild-type SIK1 peptide not phosphorylated by PKA (on GST as carrier protein) [GST: P08515] (P08515 whole entry, looked up): as above

[7] = molecular target: T1, peptide p300 [84-93 (S89A)], Q09472

Protein	protein-phosphorylating activity (32P intake, SDS-PAGE) [1]	phosphorylation of the substrate (32P) [2]	phosphorylation of the substrate (32P) [3]	phosphorylation of the substrate (32P) [4]	phosphorylation of the substrate (32P) [5]	phosphorylation of the substrate (32P) [6]	enzyme activity of SIK (phosphorylation of Syntide 2) [7]	phosphorylation by SIK [7]
B1	GST-rat SIK1 and GST-rat SIK1 (K56M) were subjected to the same experiment. Consequently, the same results were obtained.	the mutants S577A, R574A, and R574/575A were not phosphorylated	the mutants S577A, R574A, and R574/575A were not phosphorylated	the mutants S577A, R574A, and R574/575A were not phosphorylated	the mutant R575A was phosphorylated much more efficiently than the case of the wild-type SIK1	the wild-type SIK1 was phosphorylated	–	–
B2	wild-type GST-mSIK2 has an auto-phosphorylating activity and an activity of phosphorylating GST-Syntide 2	–	–	–	–	–	the unphosphorylated peptide p300 wherein serine at position 89 is substituted with alanine inhibits the enzyme activity of SIK	a peptide wherein serine at position 89 in p300 is substituted with alanine becomes unphosphorylated
